In article PMC10720262 (2023) one finds binding score data, which are given here for 23 molecules.

The target in this assay is PfCSP full length (Plasmodium falciparum (isolate NF54), UniProt P19597). The assay can be described thus: ELISA AUC. A general note: In an ELISA, binding on a coated surface is turned into a signal by an enzyme label.

Numbering of substitutions follows the chain as printed.

Chain of PfCSP full length (P19597 20-375): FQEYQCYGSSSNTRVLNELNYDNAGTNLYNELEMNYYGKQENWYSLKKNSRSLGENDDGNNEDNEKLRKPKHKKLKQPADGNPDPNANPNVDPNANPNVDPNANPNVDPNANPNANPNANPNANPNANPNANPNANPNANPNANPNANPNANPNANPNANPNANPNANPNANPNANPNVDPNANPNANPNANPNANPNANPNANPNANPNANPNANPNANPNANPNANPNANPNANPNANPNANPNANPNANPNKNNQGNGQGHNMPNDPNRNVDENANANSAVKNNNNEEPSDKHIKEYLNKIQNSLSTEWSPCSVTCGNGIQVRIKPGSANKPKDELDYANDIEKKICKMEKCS

B1: CL-511776 (antibody, V domains shown)
VH: QVQLVESGGGVVQPGRSLTLSCAASGFTFSNFGMHWVRQAPGKGLEWMAVIWYDGNNEFYADSVKGRFTISRDNSKNMLYLHMNSLRAEDTAIYYCAREGDYSASGSHWLFDPWGQGTQVTVSS
VL: DIQMTQSPSTLSASVGDSITITCRASQSINIWLAWYQQKPGKAPNLLIYKASSLESGVPSRFSGSGSGTEFTLTINSLQPDDFATYYCQQYNNYVTFGGGTKVEIK
modifications: peptides N-terminally acetylated and C-terminally amidated
B1: the binding score stood at 2.14.

B2: CL-515341 (antibody, V domains shown)
VH: QVYLVESGGGVVQPGKSLRLSCAASGFTFSNYGMHWVRQAPGKGLEWVAIIWHDGSNKFYSDSVRGRFTISRDNSQNTLYLQMNSLSAEDTALYFCAKDIGYSNTWDYFDYWGQGTLVTVSS
VL: EIVLTQSPATLSLSPGERATLSCRASQSVNSFLAWYQQKPGQAPRLLIYDASNRATDIPDRFSGSGSGTDFTLTIRSLEPEDFAVYFCQQRSKWFTFGGGTTVEMK
modifications: peptides N-terminally acetylated and C-terminally amidated
The molecule B2 gave a binding score of 2.38.

B3: CL-532061 (antibody, V domains shown)
VH: QVQLVESGGGVVQPGRSLRLSCVASRFTFSNYGMHWVRQTPGKGLEWVAIIWYDGSNKFYGDSVKGRFTISRDNSRNTLYLQMNNLRAEDTAVYYCARAYDDFVDHDKYGMDVWGQGTTVTVSS
VL: DIQMTQSPSTLSASVGDRVTISCRASQSISIWLAWYQQKSGKAPKLLIYKASRLESGVPSRFSGSGSGTEFTLTISSLQPDDFATYYCQQYNSYWTFGQGTKVEIK
modifications: peptides N-terminally acetylated and C-terminally amidated
As for B3, the binding score was found to be 2.47.

B4: Ky15.11 (antibody, V domains shown)
VH: QVQLVESGGGVVQPGRSLRLSCEASGFTFSNFGMHWVRQTPVKGLEWVAIIWFDGSYKYYTDSVKGRFTISRDNSKNTLYLQMNSLRAEDTAVYYCARARKGQRSDYYGSETSYTFDNWGQGTLVTVSS
VL: B3 VL with S22T, S30N, I31G, S40P, L46F, R53I, V58I, N92S
modifications: peptides N-terminally acetylated and C-terminally amidated
Molecule B4 yielded a binding score of 2.53.

B5: Ky15.3 (antibody, V domains shown)
VH: QVQLVESGGGVVQPGRSLRLSCVASGFTFSNAGMHWVRQTPGKGLEWVAIIWYDGSIKYYGESVKGRFTISRDNSKNTLYLEMSSLRAEDTAVYFCVRAYSGSLYDKYGMDVWGQGTTVIVSS
VL: B3 VL with S28T, I31T, Y36F, S40P, K50A, R53S, E55Q, E70D, S77N, Y91F
modifications: peptides N-terminally acetylated and C-terminally amidated
On to B5, for which the binding score was 2.2.

B6: CL-510640 (antibody, V domains shown)
VH: QVQLVESGGGVVQPGRSLRLSCAASGFTFSNYGMHWVRQAPVKGLEWVAIIWYDGSNKFYADSVRGRFIISRDNSKNTLYLQMNSLRAEDTAVYFCARAREGQNSDYYGSETSYTFDSWGLGTLVTVSS
VL: B3 VL with S22T, I31S, S40P, L46F, R53S, N92K
modifications: peptides N-terminally acetylated and C-terminally amidated
In turn, B6 registered a binding score of 2.16.

B7: Ky15.7 (antibody, V domains shown)
VH: QVQVVESGGGAVQPGRSLRLSCAASGFTFSNRGMHWVRQTPGKGLEWVAIIWYDGGNKFYADSVKGRFTISRDNSKNTLYLQMNSLRDEDTAVYYCVRAGDWKADKYTMDVWGQGTTVTVSS
VL: B3 VL with S22T, I31S, S40P, L46V, K50Q, R53S
modifications: peptides N-terminally acetylated and C-terminally amidated
For B7, the binding score stood at 2.3.

B8: CL-512761 (antibody, V domains shown)
VH: QVQLVESGGGVVQPGTSLRLSCAASGFTFSNYGMHWVRQAPGKGLEWVSITWYDESNKFYADSVKGRFTISRDNSKNTLYLQMNSLRAEDTAVYYCARAYDTLTGYRAQKYGMDVWGQGTTVTVSS
VL: B3 VL with S22T, S28R, I31T, S40P, Y49N, K50E
modifications: peptides N-terminally acetylated and C-terminally amidated
B8 registered a binding score of 2.17.

B9: CL-512374 (antibody, V domains shown)
VH: QVQLVESGGGVVQPGRSLRLSCAASGFTFSSYGMHWVRQAPGKGLEWVAVIWYDGSNKYYADSVKGRFTISRDNSKNTLYLQMNSLRAEDTAVYYCARDGGGTTRSFDLWGRGTLVTVSS
VL: QSVLTQPPSVSGAPGQRVTISCTGSSSNIGAGYDVHWYQQLPGTAPKLLIYGNSNRPSGVPDRFSGSKSGTSASLAITGLQAEDEADYYCQSYDSSLSGSMFGGGTKLTVL
modifications: peptides N-terminally acetylated and C-terminally amidated
For B9, the binding score was found to be 1.17.

B10: CL-447703 (antibody, V domains shown)
VH: QVQLVESGGGVVQPGRSLRLSCEASGFTFSDHGMHWVRQGPGKGLEWVSIIWYDGSNKYYADSVKGRFTISRDNSKNTLYLEMNRLRAEDTALYYCARVWNHDDYKYSMDVWGQGTTVTVSS
VL: not shown
modifications: peptides N-terminally acetylated and C-terminally amidated
Consider B10, for which the binding score came to 2.5.

B11: CL-510596 (antibody, V domains shown)
VH: QVQLEESGGGVVQPGRSLRLSCTATGFTFSNYGMHWVRQAPGKGLEWVAVIWYDGSNKYYVDSVKGRFTISRDNSKNTLYLQMNSLRAEDTAVYYCARDGGYYGSGSYWWFDSWGQGTLVTVSS
VL: not shown
modifications: peptides N-terminally acetylated and C-terminally amidated
On to B11, for which the binding score was determined as 1.64.

B12: CL-510514 (antibody, V domains shown)
VH: QVQLVESGGGVVQPGRSLRLSCTTSGFTFSNFGMHWVRQAPGKGLEWVALIWYDGSNKYYADSVKGRFTISRDNSKNTLYLQMNGLRAEDTAVYYCARDGGYYYGSGGAFDIWGQGTMVTVSS
VL: not shown
modifications: peptides N-terminally acetylated and C-terminally amidated
For B12, the binding score is 2.12.

B13: CL-437862 (antibody, V domains shown)
VH: QVQLVESGGGVVQPGRSLRLSCAASGFTFSNSGMHWVRQVPGKGLEWVAIIWYDGGNKYYADSVKGRFTISRDNSKNTLYLQMNSLRAEDTAVYYCARAYYDILTSYDKDCCYGMDVWGQGTTVTVSS
VL: not shown
modifications: peptides N-terminally acetylated and C-terminally amidated
With B13, the binding score was 2.4.

B14: CL-460506 (antibody, V domains shown)
VH: QVQLVESGGGVVQPGRSLRLSCAASGFTFSNYGMHWVRQAPGKGLEWMAIIWYDGSNKYYADSVKGRFTISRDNSMNTLYLQMNSLRPEDTALYYCARAFYYGSGTLDYWGQGTLVTVSS
VL: EIVLTQSPATLSVSPGERATLSCRASQSVSSHLAWYQQKFGQAPRLLIYGASNRATGIPARFSGSGSGTEFTLTISILQSEDFAVYYCQQYNNWFTFGPGTKIDIK
modifications: peptides N-terminally acetylated and C-terminally amidated
Molecule B14 had a binding score of 2.2.

B15: CL-510499 (antibody, V domains shown)
VH: QVQLVESGGGLVQPGRSLTLSCAASGFTFSNYGMHWVRQTPGKGLEWVALIRYDGSYKFYADSVKGRFTISRDNSKNTLYLQMNSLRAEDTAIYFCARDGDYSNSAGDFDYWGQGTLVTVSS
VL: EIVLTQSPGTLSLSPGERATLSCRASQSVSSTNLAWYQQKPGQAPRLLIYGVSSRATGIPDRFSGSGSGTDFTLTINRLEPEDFAVYYCQQHGRSFTFGPGTKVEIK
modifications: peptides N-terminally acetylated and C-terminally amidated
In turn, B15 gave a binding score of 2.06.

B16: CL-531286 (antibody, V domains shown)
VH: QVQLVESGGGLVQPGRSLRLSCAASGFTFSSSGMHWVRQAPGKGLEWVAVIWYDGSNKFYADSVKGRFTISRDNSKNTLYLQMNSLRAEDTAVYYCARSGYDILTGYFNFFDPWGQGTLVTVSS
VL: B15 VL with T32S, N33H, V52A, N77S, Q90H, H92Y, G93V, R94S, E105D, I106F
modifications: peptides N-terminally acetylated and C-terminally amidated
With B16, the binding score was found to be 2.29.

B17: CL-512459 (antibody, V domains shown)
VH: QVQLVESGGGVVQPGRSLRLSCTASGFTFSDYGMHWVRQAPGKGLEWVSIIWYDGSKKYYADSVQGRFTISRDNSKNTLYLQMSSLRAEDTAVYYCARAYGSGSYYTFNYWGQGTLVTVSS
VL: EIVMTQSPATLSVSPGERATLSCRASQSVNSNLAWYQQKPGQAPRLLIYGASTRATGFPARFIGSGSGTDFTLTINSLQSEDFAVYYCQQYNHWWTFGQGTKVEIK
modifications: peptides N-terminally acetylated and C-terminally amidated
The molecule B17 gave a binding score of 2.08.

B18: CL-445457 (antibody, V domains shown)
VH: QVQLVESGGAVVQPGTSLRLSCAASGFTFSNYGIHWVRQAPGKGLQWVALIWYNGNNKFYADSVQGRFTISRDNSKNILYLQINSLSAEDTAVYYCARAFYSDSGNYMDYWGQGALVTVSS
VL: DIQMTQSPSSVSASVGDRVTITCRARQDISSRLAWYQQKPGKAPKILIYGASSLQSGVPSRFSASGSGTDFTLTISSLQPEDVASYFCQQANSFPWTFGQGTKVEIK
modifications: peptides N-terminally acetylated and C-terminally amidated
B18: the binding score was 2.

B19: CL-509293 (antibody, V domains shown)
VH: QVQLVASGGGVVQPGRSLRLTCAASGFTFSNYGMHWVRQSPGRGLEWVAIIWYDGSNKFYADSVKGRFTISRDNSKNTLYLQMNSLRAEDTAVYYCAKAEQRTNDNYYKYGMDVWGQGTTVTVST
VL: not shown
modifications: peptides N-terminally acetylated and C-terminally amidated
Take B19: the binding score was 2.12.

B20: CL-510469 (antibody, V domains shown)
VH: QVQLVESGGGVVQPGRSLRLSCAASGFTFSSYGMHWVRQAPGKGLEWVAVIWYDGSNQFYTDSVKGRFTISRDNSKNTLYLHMNSLRVEDTAIYYCARDGDYSSSAGDFDYWGQGTLVTVSS
VL: not shown
modifications: peptides N-terminally acetylated and C-terminally amidated
B20 displayed a binding score of 2.16.

B21: CL-513808 (antibody, V domains shown)
VH: QVQLVESGGGVVQPGRSLRLSCAASGFTFSNYGMHWVRQAPGKGLEWVAIIWYDGSNKFYADSVKGRFTISRDNSKNTLYLQMNSLRAEDTAVYYCARDDRGHSYGPYFDFWGQGTLVTVSS
VL: EIVMTQSPATLSVSPGERATLSCRASQSVSSNLAWYQQKPGQAPRLLIYGASIRATGIPARFSGSGSGTEFTLTISILQSEDFAVYYCQQCNNWPWTFGQGTKVEIK
modifications: peptides N-terminally acetylated and C-terminally amidated
B21 showed a binding score of 2.17.

B22: CL-513691 (antibody, V domains shown)
VH: B21 VH with G10D, P14T, G42D, Q82H, M83I, N84H, H103D, Y105A, D110V, F111Y
VL: B21 VL with S31D, K39R, S63G, E81A, C91H, N92D, N93S
modifications: peptides N-terminally acetylated and C-terminally amidated
B22 showed a binding score of 2.36.

B23: CL-444387 (antibody, V domains shown)
VH: QVHLVESGGGVVQPGRSLRLSCVASGFSFSSYGMHWVRQAPGKGLEWVAIIWYDGSYTYYADSVKGRFTISRDNSKNTLYLQMNSLRVEDTAVYYCAKVGLSYNGRTGAFDIWGQGTMVTVSS
VL: not shown
modifications: peptides N-terminally acetylated and C-terminally amidated
B23 had a binding score of 2.3.
